In the supplement of paper PMC9170038:

Assays:
MS2 coat protein [1] = assay: apparent KD of MS2 coat protein, switch ON state; designed switch direction (-1 OFF switch, 1 ON switch): 1; higher = weaker reporter binding; details: FMN input: 0 or 200 uM; Eterna round: R93 (includes R88 designs)
How it was run: (§1)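 For every design, apparent KD is the median of normalised binding-curve fits from its clusters. The RNA switches were transcribed on-chip from Illumina sequencing clusters and titrated with SNAP-549-labelled MS2 coat protein (twofold steps, 0.7 or 1.5 nM to 3 µM; 0.8–1.5 h to 10–20 min per step). Titrations used 100 mM Tris-HCl pH 7.5, 80 mM KCl, 4 mM MgCl2, without or with constant ligand.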

MS2 coat protein [2] = assay: apparent KD of MS2 coat protein, switch OFF state (with FMN for OFF switches, without FMN for ON switches); designed switch direction (-1 OFF switch, 1 ON switch): 1; higher = weaker reporter binding; details: FMN input: 0 or 200 uM; Eterna round: R93 (includes R88 designs)
How it was run: as §1

Sequence | apparent KD of MS2 coat protein (MS2 coat protein [1]) [nM] | apparent KD of MS2 coat protein (MS2 coat protein [2]) [nM]
AACAAUCUAUCUGAGGAUAUAUGUCGAAAGACAUGAGGAUCACCCAUGUGAAAACAUGAAAAGACAUAGAAGGCAGAUAGAUUGA [SS2: 1131] | 27.4 | 47.3
AUUCCAAAUAGUCAGGAUAUCAGAAGUAAGACAUGAGGAUCACCCAUGUACUUAGUAAAAGUAACUGAGAAGGGACAGGGUGUAA [JR_SS002_Sub405] | 17.4 | 16.1
GAAAAACAUGAGGAUCACCCAUGUAGAAAUAUGGGAGGAUAUACAAAGACGAAAGUCAAAGUAGAAGGCCUUAAAG [JL S1 M-MoE mod 1 In the Red] | 28.3 | 54.9
GGAGUACAUGAGGAUCACCCAUGUUGGAACAAAGUAGGAUAUGUACAAUAUUAAAUAAAAACAGAAGGACUAAGAA [Gold Rush] | 23.3 | 37.1
AGAAAUAAACCGAAGGAUAUCUAAACCUAAACAUGAGGAUCACCCAUGUAAAAGAAAAUAAAAUGGGAGAAGGUCGGAAAUAAGA [Designing denovo 12] | 17.5 | 29.9
AUAAAAUAAACUGAGGAUAUCUAUAAUAAAACAUGAGGAUCACCCAUGUUUAAACAAAGAUCAUGGGAGAAGGCAGAAAAUAAAU [SS2 M 38] | 37.8 | 36.6
GUGUAUAGAAUCGAGGAUAUCCUGUAAUGCACAUGAGGAUCACCCAUGUAAGAGCGAGAAUAAUGGGAGAAGGCGAGUUAUCGGU [JR_SS002_Sub1710] | 27.5 | 46.1
AGAAGACAUGAGGAUCACCCAUGUGGGAAUAUGGGAGGAUAUACAAAGACGAGAGUCAGAGUAGAAGGCCUAGGAU [salish99-SS1-092] | 37.3 | 118
AAAAUAUAAACGGAGGAUAUCCAAAGAACCACAUGAGGAUCACCCAUGUAAAGAAAGAAUAAGUGGGAGAAGGCCGAAAUAAUAA [Designing denovo 27] | 18.9 | 56.9
AAUAUACAUGAGGAUCACCCAUGUUAGGUGGGACUAGGAUAUCAAAAUAAAUAAAGAACAUGAGAAGGAGUAUCAA [JR_SS001_Sub401] | 94.5 | 152
GAAAAACAUGAGGAUCACCCAUGUAGAGAUAUGGGAGGAUAUACGAAGACGAAAGACGAUGUAGAAGGCCUAAAAG [Garnet 59] | 80.4 | 234
AUAAAACAUGAGGAUCACCCAUGUAGAAACAUGGGAGGAUAUACAAAGACGAAAGUCAAAGUAGAAGGCCUAAAAG [Meechl MS2 SS1 2] | 104 | 67.3
AAAUAAAGGACUGAGGAUAUACCACAUGAAACAUGAGGAUCACCCAUGUAAUAAUACAAAGGGUGGUAGAAGGUAGUCCACAAACA [so let's mod Hyphema] | 14 | 26.8
AAAAAACAUGAGGAUCACCCAUGUAGAAACAUGGGAGGAUAUACAAAGACGAAAGUCAAAGUAGAAGGCCUAAAAA [Mat - Same State 1 - Mod - D157] | 77.7 | 33.5
AAUACACAUGGUCAGGAUAUCGCAGCUAGGACAUGAGGAUCACCCAUGUCGUAAGUAAAAGUAAAUGAGAAGGGACAGGGUGACC [JR_SS002_Sub406] | 133 | 28.2
AGGAGACAUGAGGAUCACCCAUGUGAGAAGAGGCGAGGAUAUCGAAAGAAAGAAGAGAAACGAGAAGGCGCGAGCA [salish99-SS1-020] | 19.7 | 37.1

Sequence | apparent KD of MS2 coat protein (MS2 coat protein [1]) [nM] | apparent KD of MS2 coat protein (MS2 coat protein [2]) [nM]
AAGAAACAUGAGGAUCACCCAUGUAGAAACAUGGGAGGAUAUACAAAGACGAAAGUCAAAGUAGAAGGCCUAAGAA [Mat - Same State 1 - Mod - D164] | 102 | 63.5
UUACAGCACAGGUAGGAUAUGUAGGGUGGUACAUGAGGAUCACCCAUGUAUCCACCCUUCGAAAGGCAGAAGGGCCUGUCGCUGC [Arsora] | 24.6 | 16.8
AAAACACAUGAGGAUCACCCAUGUGCAAAAUUCGCAGGAUAUUCCUCAAUUAAAUGAGAGGAAGAAGGGUGAUAAA [Nob's Hobby 33 - Jieux - Same State 1] | 18.9 | 53.4
AAUAAACAUGAGGAUCACCCAUGUAAUAAUAUGGGAGGAUAUACUAAAAUAAAAUAAAAUGUAGAAGGCCUAAUAA [LROPPY Same State 1 - v05_deltaG=1.05 break up the As] | 35.5 | 159
AACAUACAUGAGGAUCACCCAUGUUCCGGCAGGUCAGGAUAUUCAUCGAAAGUGUUAUAAGAAGAAGGGACAUAAA [JR_SS001_Sub011] | 34 | 48.9
UAUAAACAUGAGGAUCACCCAUGUAGAAAUAUGGGAGGAUAUACAAAGACGAAAGUCAAAGUAGAAGGCCUAAUAA [Mat - Same State 1 - Mod - D156] | 16.6 | 89.4
AUAAAAUAAAAGGAGGAUAUCCAUAAUAAAACAUGAGGAUCACCCAUGUAAAAAAGAAGAAAAUGGGAGAAGGCCUAAAAUAAAU [SS2 M 27] | 11.4 | 23.6
AAUAUAUUAAGUGAGGAUAUCAUAGGAAAAACAUGAGGAUCACCCAUGUGGGAAACCUGGUCGGGUGAGAAGGUACUUAAUAUAU [Samwise Clockwise 31 - Jieux - Same State 2] | 69.2 | 175
CAGAGACAUGAGGAUCACCCAUGUAGGAUUAUGGGAGGAUAUACAAAGACGAGAGUCAGAGUAGAAGGCCUAGGAA [salish99-ss1-141] | 21.1 | 57.6
GAAAAACAUGAGGAUCACCCAUGUGUAAAUAUGGGAGGAUAUACAAAGACGAAAGUCAAAGUAGAAGGCCUAAAAG [Mat - Same State 1 - Eli mod - D5] | 23.2 | 190
UAAAAACAUGAGGAUCACCCAUGUGAGAACAUGGGAGGAUAUACAAAGACGAAAGUCAAAGUAGAAGGCCUAAAAU [Mat - Same State 1 - Mod - D170] | 75.1 | 15.9
AAAAGACAUGAGGAUCACCCAUGUAAAAACGUGGGAGGAUAUGCAUGGAAAACAUGCUGUGCAGAAGGCCCGUGUC [SS1 - 22] | 263 | 200
AGAAUAAAAACAGAGGAUAUCCAAAAGAAAACAUGAGGAUCACCCAUGUAAAAGAAAAUAAAAUGGGAGAAGGCUGAAAAAAAGA [Mat - Same State 2 - Eli mod - D98] | 25 | 39.3
GAACCACAUGAGGAUCACCCAUGUCAAAGAAAUCAAGGAUAUGCACAAAAGGAAAUAACUGCAGAAGGUGAACGAA [62%, Redo, 1] | 22.6 | 40.9
AGGAAACAUGAGGAUCACCCAUGUAAAAAUAUGGGAGGAUAUACAAACAGGAAAGAGAGAGUAGAAGGCCUAAAAG [Garnet 20] | 72.9 | 41.8
GAAAAACAUGAGGAUCACCCAUGUGUAAAUAUGGAAGGAUAUACAAAGACGUAAGUCAAAGUAGAAGGUCUAAAAG [Mat - Same State 1 - Eli mod - D17] | 18.8 | 23.5
